One may read the Kd as the constant that tells how readily two partners part at equilibrium. Read a high Kd as weaker binding. The EC50 (read off the curve) is the concentration at which the effect is half-maximal. The term koff denotes a measure of how fast the partners let go of each other. A high value points to a short-lived complex. By kon is commonly meant the rate constant with which the complex forms.

Experiment [1] deals with HIV-1 Yu2 gp160 (Env) expressed on the 293T cell surface (HIV-1 Yu2) (UniProt P35961). Kind of experiment: flow cytometry, 293T cells transfected with Yu2 gp160, primary antibody 10 µg/ml. (In general: A flow cytometer gives signals particle by particle.)
In experiment [2] the target is BG505 SOSIP.664 gp140 trimer (HIV-1 BG505). Briefly: method not given.
The target of experiment [3] is HIV-1 gp41 (strain not stated) (HIV-1). Briefly: method not given.
The target in experiment [4] is full-length gp120 monomer (HIV-1 (Yu2 by the materials, not named in the results)) (UniProt P35961). Briefly: method not given.
Experiment [5] has as its target SF162 gp140 trimer (HIV-1 SF162) (UniProt P19550). Kind of experiment: ELISA on coated SF162 gp140 trimer, OD at 405 nm, 1x PBS as blank. (ELISA stands for enzyme-linked immunosorbent assay.)
For experiment [6], the target named is BG505 SOSIP.664 gp140 trimer (HIV-1 BG505). Briefly: ELISA on coated BG505 SOSIP.664 gp140 trimer, OD at 405 nm, 1x PBS as blank.
In experiment [7] the target is full-length gp120 monomer (HIV-1 (Yu2 by the materials, not named in the results)) (UniProt P35961). Briefly: ELISA on coated full-length gp120 monomer, OD at 405 nm, 1x PBS as blank.
Experiment [8] concerns the target Recombinant HIV-1 gp41MN (HIV-1 MN) (UniProt P05877). Briefly: ELISA on coated gp41 (HIV-1 MN per the example), OD at 405 nm.
The target in experiment [9] is HIV-1 gp41 (strain not stated) (HIV-1). Kind of experiment: SPR (BIAcore), Env protein immobilized on CM5 chip, antibody as analyte. In general terms: In SPR one partner is held on a chip, and binding of the other changes the refractive index at the surface.
The target in experiment [10] is full-length gp120 monomer (HIV-1 (Yu2 by the materials, not named in the results)) (UniProt P35961). Described as above.

Sequence of SF162 gp140 trimer (HIV-1 SF162) (P19550 32-675 limits assumed): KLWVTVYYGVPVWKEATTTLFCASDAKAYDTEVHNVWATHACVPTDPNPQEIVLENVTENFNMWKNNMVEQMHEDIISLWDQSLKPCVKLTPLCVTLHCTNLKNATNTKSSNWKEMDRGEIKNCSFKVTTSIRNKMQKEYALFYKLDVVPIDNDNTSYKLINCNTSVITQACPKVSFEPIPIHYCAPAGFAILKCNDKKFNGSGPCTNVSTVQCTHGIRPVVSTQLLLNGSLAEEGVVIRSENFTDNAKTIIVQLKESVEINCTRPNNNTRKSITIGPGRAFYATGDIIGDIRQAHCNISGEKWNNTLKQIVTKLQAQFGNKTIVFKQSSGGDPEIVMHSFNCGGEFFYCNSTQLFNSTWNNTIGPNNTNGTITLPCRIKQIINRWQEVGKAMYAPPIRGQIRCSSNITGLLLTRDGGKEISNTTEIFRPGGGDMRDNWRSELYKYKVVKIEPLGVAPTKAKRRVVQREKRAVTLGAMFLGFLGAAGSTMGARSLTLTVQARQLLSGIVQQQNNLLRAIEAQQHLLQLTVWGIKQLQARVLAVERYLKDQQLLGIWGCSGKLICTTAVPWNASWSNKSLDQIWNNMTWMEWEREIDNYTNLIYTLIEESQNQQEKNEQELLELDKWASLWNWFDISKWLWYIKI

Substance HIV-1 gp120 Monoclonal Antibody (48d) displayed a Percentage of recognition of HIV-1 Env in [1] of 3.1%.

“HIV-1 gp120 Monoclonal Antibody (F425 B4e8)” showed a Percentage of recognition of HIV-1 Env in [1] of 6.4%. HIV-1 gp41 MAb (IgG1 Z13e1) (antibody) had a Percentage of recognition of HIV-1 Env in [1] of 5.2%. HIV 1 V3 Monoclonal Antibody (3074) returned a Percentage of recognition of HIV-1 Env in experiment [1] of 3.4%. With NIH45-46 (antibody), the dissociation constant (Kd) in experiment [2] came to 0.1 nM; in experiment [3], 1 nM; in experiment [4] it was 0.1 nM. The figures for the half-maximal effective concentration (EC50 (read off the curve)) in [5] and in experiment [6] were 0.2 µg/mL and 0.02 µg/mL, respectively.

Substance HIV-1 MAb PG16 (antibody) displayed a Percentage of recognition of HIV-1 Env in experiment [1] of 1.5%. Same read-out and setting: in the case of HIV 1 V3 Monoclonal Antibody (2442) it was 6.6%; in that of “HIV-1 gp120 Monoclonal (2G12) (antibody)”, 22.8%; in that of HIV 1 V3 Monoclonal Antibody (2219), 3.1%. In the case of HIV-1 gp120 MAb (VRC01) (antibody), the half-maximal effective concentration (EC50 (read off the curve)) was 0.05 µg/mL in experiment [5], 0.3 µg/mL in [7] and 0.03 µg/mL in experiment [6]. In experiment [1], this substance displayed a Percentage of recognition of HIV-1 Env of 6%. HIV-1 gp41 Monoclonal (98-6) (antibody) came in with a Percentage of recognition of HIV-1 Env in experiment [1] of 3.5%.

In the case of HIV 1 V3 Monoclonal Antibody (3869), the Percentage of recognition of HIV-1 Env in experiment [1] worked out at 2.6%. Substance HIV-1 gp120 MAb (VRC03) (antibody) displayed a Percentage of recognition of HIV-1 Env in experiment [1] of 6.4%.

Regarding HIV-1 gp41 Monoclonal Antibody (2F5), the concentration for a half-maximal effect (EC50 (read off the curve)) in experiment [8] was 0.03 µg/mL. Moreover, in [1], the Percentage of recognition of HIV-1 Env worked out at 9.9%. For the substance HIV-1 gp120 MAb (HJ16) (antibody), in experiment [1], the Percentage of recognition of HIV-1 Env stood at 17.6%. For HIV-1 gp41 Monoclonal Antibody (4E10), in experiment [8], the EC50 (read off the curve) amounted to 0.03 µg/mL. Also, in experiment [9], the Kd worked out at 10.8 nM, the off-rate constant (koff) is 2.14e-05 s⁻¹ and the on-rate constant (kon) stood at 1980 M⁻¹ s⁻¹. For the same substance, the Percentage of recognition of HIV-1 Env in experiment [1] worked out at 13.4%. The substance HIV-1 gp41 Monoclonal Antibody (5F3) yielded a Percentage of recognition of HIV-1 Env in experiment [1] of 6.4%. Still for that read-out and setting: in the case of HIV-1 gp41 Monoclonal Antibody (F240) it was 3.5%; in that of “HIV 1 gp41 Monoclonal Antibody (167-7, 67-D IV)”, 11.8%. Still for that read-out and setting: in the case of “HIV-1 gp41 Monoclonal (126-7) (antibody)” it was 3.2%. As for HIV-1 anti-gp41 mAb (10E8) (antibody), in [9], the Kd is 15.5 nM and the dissociation rate constant (koff) is 0.000901 s⁻¹. Also, the Percentage of recognition of HIV-1 Env in experiment [1] is 11.7%. In turn, HIV-1 gp120 MAb (39F) (antibody) had a Percentage of recognition of HIV-1 Env in experiment [1] of 2.6%.

Take HIV-1 gp120 Monoclonal Antibody (17b): in [10], the dissociation constant Kd was 0.982 nM and the off-rate constant (koff) came to 2.59e-06 s⁻¹. For the same substance, the Percentage of recognition of HIV-1 Env in experiment [1] is 1.5%.

HIV-1 gp41 Monoclonal Antibody (50-69) displayed a Percentage of recognition of HIV-1 Env in experiment [1] of 4.5%. The substance HIV-1 V2V3 Monoclonal Antibody (2909) came in with a Percentage of recognition of HIV-1 Env in [1] of 5.6%.

Take HIV-1 MAb PG9 (antibody): the Percentage of recognition of HIV-1 Env in experiment [1] came out at 6%. As for HIV-1 anti-gp41 mAb (7H6) (antibody), the Percentage of recognition of HIV-1 Env in experiment [1] came to 19.8%. On the same count and under the same terms, in the case of HIV-1 gp120 Monoclonal Antibody (F105) it was 4.5%; in that of “HIV-1 gp120 Monoclonal Antibody (F425 B4a1)”, 2.5%; in that of “HIV-1 gp120 Monoclonal Antibody (IgG1 b12)”, 9.8%. In turn, HIV-1 gp120 MAb (A32) (antibody) gave a Percentage of recognition of HIV-1 Env in experiment [1] of 79.2%. Take HIV 1 V3 Monoclonal Antibody (2191): in [1], the Percentage of recognition of HIV-1 Env is 2.9%. With “Monoclonal Antibodies to HIV-1 V3 (268) (antibody)”, the Percentage of recognition of HIV-1 Env in experiment [1] came out at 2.1%.
